Measured values as given in patent US7462695B2, “Insect chymotrypsin and inhibitors thereof” (Hexima Limited, priority 2003, dated 2008).

Tests used:
[1] = biological target: bovine chymotrypsin (Bos taurus, UniProt P00766); test: Inhibition of bovine chymotrypsin; type: biochemical; settings: 100 ng bovine chymotrypsin, pH 10; for % Inhibition BC: at maximum concentration tested
Protocol: (§1) Several proteinase inhibitors were tested for their ability to inhibit the activity of the insensitive chymotrypsins. The buffer used for all assays was 500 mM CAPS, 75 mM NaCl, 2.5 mM MgCl2 at pH 10.

[2] = system: chymotrypsin activity in gut extracts of H. punctigera larvae; test: Inhibition of chymotrypsin activity in individual larval gut extracts (FIG. 2F); type: biochemical, Helicoverpa punctigera; settings: pre-incubated with 80 nM
From the text: FIG. 2 is a graphical representation showing growth of H. punctigera larvae fed on either low protein haricot bean artificial diet or cotton leaf artificial diet, in the presence or absence of 0.26% (w/v) NaPIs. Weight gain (mg) was monitored for 21 days. […] (A) Growth of larvae. (B) Relative size of larvae at 21 days after feeding on cotton artificial diet, in the presence or absence of 0.26% NaPIs. […] (C) The effect of NaPIs on gut trypsin and chymotrypsin activity. When each H. punctigera larva reached the late fourth/early fifth instar stage of development, the gut was removed and gut extract prepared prior to assays for trypsin and chymotrypsin activity. […] Trypsin activity was determined using BApNA substrate and chymotrypsin activity with SAAPFpNA substrate. Units of activity are expressed as change in absorbance at 405 nm/min/mg gut extract protein (±standard deviation). […] Trypsin activity was determined using BApNA substrate and chymotrypsin activity with SAAPFpNA substrate. Units of activity are expressed as change in absorbance at 405 nm/min/mg faecal extract protein (±standard deviation). […] Frass extracts were analysed on 15% ((w/v)) SDS-PAGE and transferred to nitrocellulose. […] Units of activity are expressed as substrate hydrolysis at 405 nm/min/mg extract protein (±standard deviation). […] Trypsin activity was determined using BApNA substrate. […]

[3] = system: chymotrypsin activity in unfractionated gut extracts from H. punctigera; test: Chymotrypsin activity in unfractionated gut extracts with proteinase inhibitors (FIG. 3); type: biochemical, Helicoverpa punctigera; settings: larvae raised on haricot bean diet without added proteinase inhibitors; substrate SAAPFpNA
Protocol: FIG. 3 is a graphical representation showing the effect of various proteinase inhibitors on the chymotrypsin activity in unfractionated gut extracts from H. punctigera. Proteinase inhibitors were mixed with 1 μg of protein from an unfractionated gut extract before incubation with the chymotrypsin substrate N-succinyl-Ala-Ala-Pro-Phe-p-nitroanilide. Inhibition is expressed as a percentage of the total activity in the control samples.
Fourth-instar larvae were killed using ethyl-acetate prior the removal of individual gut which were then homogenized in a mortar and pestle in an equal amount [(w/v)] of 50 mM Tris-HCl, pH 8.0 containing 100 μM benzamidine. Insoluble material was removed by centrifugation at 20,000 rpm for 15 min at 4° C. and total protein concentration determined using the Bradford method (Bradford, Anal Biochem 72: 248-254, 1976) with reagents from BioRad and BSA as a standard.
Unfractionated gut extract containing approximately 1 μg of buffer soluble protein was added to 10 μL CAPS buffer (0.5 M, 3-[cyclohexylamino]-1-propane-sulfonic acid, pH 10) and made to a final volume of 100 μL in individual wells of a 96 well microtiter plate. Proteinase inhibitors were added over a range of concentrations and incubated for 15 min at 25° C. Bovine chymotrypsin (100 ng) was used as a positive control, both for activity and inhibition. The chromogenic artificial substrate SAAPFpNA (N-Succinyl-L-alanyl-L-alanyl-L-prolyl-L-phenylalanine 4-nitroanilide) was then added to a final concentration of 1 mM and hydrolysis of the substrate was measured at 405 nm using the SpectraMax 250 microtiter plate reader (Molecular Devices).

[4] = system: Agrotis ipsilon (black cutworm); settings: after exposure in the diet; cited from earlier work
[5] = system: chymotrypsin from the gut of H. zea larvae; settings: cited from earlier work
[6] = biological target: NaPI-insensitive chymotrypsins from H. punctigera (Helicoverpa punctigera, UniProt A0PGE0); test: Inhibition of NaPI-insensitive chymotrypsin (gut extract depleted of trypsins and NaPI-sensitive chymotrypsins); type: biochemical; settings: pH 10, 30 min preincubation at 30° C.
Chain of NaPI-insensitive chymotrypsins from H. punctigera (A0PGE0 entry or part of it): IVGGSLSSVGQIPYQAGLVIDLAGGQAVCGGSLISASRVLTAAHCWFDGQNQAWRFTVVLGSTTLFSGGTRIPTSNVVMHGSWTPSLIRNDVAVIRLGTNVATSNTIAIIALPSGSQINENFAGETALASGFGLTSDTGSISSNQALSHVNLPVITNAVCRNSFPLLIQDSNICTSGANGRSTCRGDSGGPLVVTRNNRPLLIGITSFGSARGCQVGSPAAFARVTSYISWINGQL
Protocol: The midgut was dissected from 100 fourth instar larvae and buffer soluble extracts were prepared. The gut extract was depleted of NaPI-sensitive proteases by passage through an affinity column composed of immobilized NAPI protein (C1, C2, T1-T4). […] This preparation of unbound material was used to study the pH optimum, substrate preference and effect of a range of proteinase inhibitors on the activity of the NaPI-insensitive proteinase. […] The best substrate for enzyme assays was determined using seven different commercial substrates.
as §1

[7] = system: trypsin activity in gut extracts; settings: in vitro, cited from earlier work

IC50 [1] [µM] | % Inhibition Insensitive ([6]; at maximum concentration tested) [%] | IC50 [6] [µM] | Molecule | % Inhibition BC [1] [%] | inhibition of chymotrypsin activity, extracts from control and NaPI-fed larvae [2] | inhibition of gut chymotrypsin activity (in words) [3] | reduction in total gut proteolytic activity [4] [%] | inhibition of chymotrypsin activity from the gut of insects with prior exposure to SBTI in the diet [5] [%] | inhibition of chymotrypsin from the gut of control insects [5] [%] | inhibition of gut trypsin activity in larvae that had consumed SBTI ([7]; 48 h on diet with 1% SBTI) [%] | inhibition of trypsin activity in gut extracts from control larvae [7] [%]
 |  |  | CC(C)C[C@H](NC(=O)[C@@H](NC(=O)N[C@@H](Cc1ccccc1)C(=O)O)[C@@H]1CCN=C(N)N1)C(=O)N[C@H](C=O)Cc1ccccc1 [Chymostatin, reference compound] | 100 | all chymotrypsin activity was abolished | totally inhibited |  |  |  |  | 
13 | 82 | 33 | SBTI: soybean trypsin inhibitor (protein, UniProt P01070 25-205, looked up) Trypsin inhibitor A: DFVLDNEGNPLENGGTYYILSDITAFGGIRAAPTGNERCPLTVVQSRNELDKGIGTIISSPYRIRFIAEGHPLSLKFDSFAVIMLCVGIPTEWSVVEDLPEGPAVKIGENKDAMDGWFRLERVSDDEFNNYKLVFCPQQAEDDKCGDIGISIDHDDGTRRLVVSKNKPLVVQFQKLDKESL | 94 |  | failed to abolish all the chymotrysin activity | ≤ 70 | 35 | 95 | 3 | 74
